Assay results taken from patent US20150315248.

Target: gelatin substrate

B1: Dif153 (CD2830, hypothetical protein, zinc metallopeptidase), recombinant (protein)
chain: DSTTIQQNKDTLSQIVVFPTGNYDKNEANAMVNRLANIDGKYLNALKQNNLKIKLLSGKLTDEKEYAYLKGVVPKGWEGTGKTWDDVPGLGGSTVALRIGFSNKGKGHDAINLELHETAHAIDHIVLNDISKSAQFKQIFAKEGRSLGNVNYLGVYPEEFFAESFAYYYLNQDTNSKLKSACPQTYSFLQNLAK
fluorimetric analysis of gelatin cleavage: the recombinant protein has a weak gelatinase/collagenase activity in the presence of zinc, but not in the presence of nickel and copper or in the apo form
